Like-named read-outs stand apart in the source and are kept apart here.
B1: 330CHI (antibody, human IgG1, V domains shown)
VH: EVKLVESGGGLVQPGGSLKLSCAASGFGFSDYGMAWVRQAPRKGPEWVAFISNSAYSIYYADTVTGRFTISRENAKNTLYLEMSSLRSEDTAMYYCARLGRGNSFAYWGQGTLVTVSA
VL: DIVMTQSPSSLTVTAGEKVTMSCKSSQSLLNSGNQKNYLTWYQQKPGQPPKLLIYWGSTRESGVPDRFTGSGSGTDFTLTISSVQAEDLAVYYCQNELFYPLTFGAGTKLELK
notes: chimeric with the constant region of human IgG1; also called chimeric antibody 330CHI
B2: IMAB362-similar-hG1 (antibody, human IgG1, kappa)
heavy: not shown
light: DIVMTQSPSSLTVTAGEKVTMSCKSSQSLLNSGNQKNYLTWYQQKPGQPPKLLIYWASTRESGVPDRFTGSGSGTDFTLTISSVQAEDLAVYYCQNDYSYPFTFGSGTKLEIKRTVAAPSVFIFPPSDEQLKSGTASVVCLLNNFYPREAKVQWKVDNALQSGNSQESVTEQDSKDSTYSLSSTLTLSKADYEKHKVYACEVTHQGLSSPVTKSFNRGEC
notes: Human IgG1/kappa format; also called positive control antibody; positive antibody
B3: Hu330-1-5M (antibody, human IgG1, kappa)
heavy: EVQLVESGGGLVQPGGSLRLSCAASGFGFSDYGMAWVRQAPGKGLEWVSFISNSAYSIYYADTVTGRFTISRDNAKNSLYLQMNSLRAEDTAVYYCARLGRGNSFAYWGQGTLVTVSSASTKGPSVFPLAPSSKSTSGGTAALGCLVKDYFPEPVTVSWNSGALTSGVHTFPAVLQSSGLYSLSSVVTVPSSSLGTQTYICNVNHKPSNTKVDKKVEPKSCDKTHTCPPCPAPELLGGPSVFLLPPKPKDTLMISRTPEVTCVVVDVSHEDPEVKFNWYVDGVEVHNAKTKPPEEQYNSTLRVVSILTVLHQDWLNGKEYKCKVSNKALPAPIEKTISKAKGQPREPQVYTLPPSRDELTKNQVSLTCLVKGFYPSDIAVEWESNGQPENNYKTTPLVLDSDGSFFLYSKLTVDKSRWQQGNVFSCSVMHEALHNHYTQKSLSLSPGK
light: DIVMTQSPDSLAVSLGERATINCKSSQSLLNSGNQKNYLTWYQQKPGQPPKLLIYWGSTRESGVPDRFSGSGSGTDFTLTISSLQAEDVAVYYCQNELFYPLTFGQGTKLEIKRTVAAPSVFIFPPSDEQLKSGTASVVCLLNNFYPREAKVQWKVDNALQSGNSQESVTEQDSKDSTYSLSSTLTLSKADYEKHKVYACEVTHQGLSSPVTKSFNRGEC
notes: also called Fc mutant of the humanized antibody; Fc-mutated humanized antibody

Columns and labels:
[1] = biological target: T1, human Claudin18.1 (CLDN18.1), full length, on cells (human, UniProt P56856 1-261); assay: FACS on CHO-K1-CLDN18.1 cells, PE-anti human Fc, MFI
T1 construct: HEK293-CLDN18.1 cells carry a fusion with green fluorescent protein (ZsGreen); CHO-K1-CLDN18.1 cells carry pcDNA3.1-CLDN18.1; The cell line is named under assay; also called CLDN18.1-FL; HEK293-CLDN18.1 cells
Description: (§1) CHO-K1-CLDN18.2 cells and CHO-K1-CLDN18.1 cells (prepared in Example 5) were digested with gastric cancer cell digestion solution at 37° C. for 15 minutes, respectively; terminated with complete culture medium, centrifuged at 1000 rpm for 5 minutes, the supernatant was discarded; the cells were resuspended with 2% fetal bovine serum-PBS diluent, the cells were adjusted to 1×10⁶ cells/ml, 100 μl of cell suspension was added to each well of the 96-well U-shaped-bottom plate; 2% fetal bovine serum-PBS was used to dilute the humanized antibody and the control antibody to final concentrations of 10 μg/ml, 2 μg/ml, 0.4 μg/ml, 0.08 μg/ml and 0.016 μg/ml, respectively, mixed well with the cells in equal volume, incubated at 4° C. for 1 hour; centrifuged at 1000 rpm for 5 minutes, the supernatant was discarded; 200 μl Cell Stain Buffer (Biolegend) was added to each well to wash twice, centrifuged at 1000 rpm for 5 minutes at each time and the supernatant was discarded; 100 μl of PE-anti human Fc antibody (Biolegend) was added, incubated at 4° C. for 1 hour; washed with Cell Stain Buffer (Biolegend) twice, centrifuged at 1000 rpm for 5 minutes at each time and the supernatant was discarded. 300 μl Cell Stain Buffer was added to resuspend the cells, and detected by BD FACS Jazz flow cytometry analyzer.

[2] = biological target: T2, antigen protein Claudin18.2-His (human, UniProt P56856-2 1-261, limits assumed); assay: BLI (Fortebio Octet RED96), antibody on AHC sensor, Claudin18.2-His in solution, 37 °C
T2 construct: also called CLDN18.2 protein
Description: Next, antibodies were immobilized by the AHC sensor, and then combined with different concentrations of antigens, and determination of the affinity was performed according to the manual of Octet RED96.

[3] = biological target: T2, antigen protein Claudin18.2-His; assay: BLI (Fortebio Octet RED96), antibody on AHC sensor, CLDN18.2 protein in solution, 37 °C
Description: Another method is to verify the affinity of the humanized antibody above at the protein level. The antibody was immobilized by the AHC sensor, and combined with different concentrations of antigens, and affinity determination was performed according to the manual of Octet RED96.

[4] = biological target: T3, human Claudin18.2 (CLDN18.2), full length, on cells (human); assay: cell-based or functional assay
[5] = biological target: T3, human Claudin18.2 (CLDN18.2), full …; assay: FACS on NUGC4 cells
Source text: (§2) Human gastric cancer cells NUGC4 and stably transfected cells CHO-K1-CLDN18.1 (prepared in Example 5) were used respectively, to verify the specificity and affinity of the anti-CLDN18.2 antibodies above at the cellular level by FAGS technology. After antibody affinity maturation and screening in vitro, each antibody can bind to the CLDN18.2 target on NUGC4 cells, but not to CHO-K1-CLDN18.1 cells, as compared with the original 3CHI antibody.

[6] = biological target: T3, human Claudin18.2 (CLDN18.2), full …; assay: cell-based or functional assay; remark: listed apart in the source
[7] = biological target: T3, human Claudin18.2 (CLDN18.2), full …; assay: FACS on CHO-K1-CLDN18.2 cells, Graphpad fit
Description: as §1, with “analyzer. […]” for “analyzer.”

[8] = biological target: T1, human Claudin18.1 (CLDN18.1), full …; assay: FACS on CHO-K1-CLDN18.1 cells
Source text: as §2

[9] = biological target: T3, human Claudin18.2 (CLDN18.2), full …; assay: FACS on CHO-K1-CLDN18.2 cells, relative Kd from Graphpad fit
Description: as §1, with “analyzer. […]” for “analyzer.”

[10] = biological target: T3, human Claudin18.2 (CLDN18.2), full …; assay: cell-based or functional assay; remark: listed apart in the source
[11] = biological target: T3, human Claudin18.2 (CLDN18.2), full …; assay: cell-based or functional assay; remark: listed apart in the source
[12] = biological target: T3, human Claudin18.2 (CLDN18.2), full …; assay: cellular ELISA on fixed HEK293-CLDN18.2 cells
Description: HEK293-CLDN18.1 and HEK293-CLDN18.2 cells were resuscitated two weeks in advance, cultured with DMEM complete culture medium containing 10% fetal bovine serum at 37° C., 5% CO₂. When the cells grew to 80%-90% confluency, they were digested with 0.5 mM EDTA-PBS (Sigma) at room temperature, centrifuged at 1000 rpm for 5 minutes, the supernatant was discarded. Cells were resuspended in DMEM complete culture medium, the cell concentration was adjusted to 6×10⁵ cells/ml. Cells were plated on 96-well cell plates (Corning) pre-coated with polylysine at 2.5 μg/well, 100 μl per well, incubated at 37° C., 5% CO₂ for 24 hours, making cells evenly and completely plated on the bottom of the well. The supernatant was aspirated, and the cells were fixed with 4% paraformaldehyde at room temperature for 20 minutes, washed 3 times with 200 μl PBS, 2 minutes at each time. The well plates were blocked with 200 μl of 3% BSA-PBS at 37° C. for 1 hour. Each chimeric antibody was diluted with 3% BSA-PBS to a concentration of 6 μg/ml, and diluted in a 6-fold gradient to a total of 7 concentrations. At the same time, IMAB362-similar-hG1 diluted in the same concentration gradient as the positive control, and human IgG1, kappa isotype control antibody (hereinafter referred to as Isotype, provided by CrownBio (Taicang) Co., Ltd.) as the negative control were added to HEK293-CLDN18.2 and HEK293-CLDN18.1 cell plates, respectively. The cells were incubated at 37° C. for 1 hour, washed 5 times with PBS. Incubation with HRP-anti human IgG (Jackson) diluted 1:10000 in blocking solution was performed at 37° C. for 1 hour followed by washing 5 times with PBS. 100 μl of TMB one-component color developing solution was added, protected from light at room temperature for 5-10 minutes, terminated with 50 μl of 2M sulfuric acid, OD450 was read on the microplate reader. Data processing: the original data was put into GraphPad 5.0 software for plotting and calculation.

[13] = biological target: T3, human Claudin18.2 (CLDN18.2), full …; assay: FACS on NUGC4 cells, positive rate
Description: (§3) The effect of the Fc-mutated humanized antibody on the binding to the target CLDN18.2 was identified by FACS. NUGC4 cells were digested using the gastric cancer cell digestion solution at 37° C. for 15 minutes; terminated by the complete culture medium, centrifuged at 1000 rpm for 5 minutes, the supernatant was discarded; the cells were resuspended with 2% fetal bovine serum-PBS diluent, the cells were adjusted to 1×10⁶ cells/ml, 100 μl of cell suspension was added to each well of the 96-well U-shaped-bottom plate; the antibody was diluted with 2% fetal bovine serum-PBS to final concentrations of 5 μg/ml, 1 μg/ml, 0.2 μg/ml, 0.04 μg/ml and 0.008 μg/ml, mixed with the cells in equal volume, incubated at 4° C. for 1 hour; centrifuged at 1000 rpm for 5 minutes, the supernatant was discarded; 200 μl of Cell Stain Buffer (Biolegend) was added to each well to wash twice, centrifuged at 1000 rpm for 5 minutes at each time and the supernatant was discarded; 100 μl of PE-anti human Fc antibody (Biolegend) was added, incubated at 4° C. for 1 hour; washed twice using Cell Stain Buffer (Biolegend), centrifuged at 1000 rpm for 5 minutes at each time and the supernatant was discarded. 300 μl of Cell Stain Buffer was added to resuspend the cells, detected with BD FACS Jazz flow analyzer.

[14] = biological target: T3, human Claudin18.2 (CLDN18.2), full …; assay: FACS on NUGC4 cells; remark: listed apart in the source
Description: as §3

Row | Binder | binding result [1] | Kd [2] [nM] | koff [2] [s⁻¹] | kon [2] [M⁻¹ s⁻¹] | Kd [3] [nM] | koff [3] [s⁻¹] | kon [3] [M⁻¹ s⁻¹] | in-vitro ADCC activity, Jurkat-CD16A/NF luciferase reporter, EC50 [4] [nM] | in-vitro ADCC activity, Jurkat-CD16A/NF luciferase reporter, Top [4] | MFI (CLDN18.2) [5] [MFI] | ADCC activity by luciferase labeling, EC50 [6] [nM] | ADCC activity by luciferase labeling, Top [6] | Bmax (MFI) [7] [MFI] | MFI (CLDN18.1) [8] [MFI] | Kd [9] [nM] | ADCC activity by luciferase labeling, EC50 [10] [nM] | ADCC activity by luciferase labeling, Top [10] | ADCC cytotoxicity by LDH method, PBMC effectors, EC50 [11] [nM] | EC50 [13] [nM] | Top (%) [13] [%] | further results
1 | B1 | no binding | 0.84 | 0.000117 | 139000 | 0.249 | 3.23e-05 | 130000 | 0.22 | 215000 | 63700 | 0.18 | 64500 | 10800 | 49 | 1.6 | – | – | – | – | – | –
2 | B2 | no binding | 7.14 | 0.000399 | 55900 | 9.44 | 0.00222 | 235000 | 0.72 | 216000 | 2180 | 0.69 | 63600 | 8220 | 59 | 28.7 | 1.49 | 89600 | 2.47 | 9.78 | 58.8 | EC50 [12]: 0.09 nM
3 | B3 | – | – | – | – | – | – | – | – | – | – | – | – | – | – | – | 0.17 | 100000 | 0.31 | 0.76 | 92.4 | fold increase of binding activity over IMAB362-similar-hG1 [14]: 15 fold

From patent US20220119517A1 (NANJING SANHOME PHARMACEUTICAL, published 2022)
